The target of assay [1] is baseplate hub protein (gp53) of bacteriophage JBD30 (bacteriophage JBD30 (Casadabanvirus JBD30)). The assay can be described thus: cryo-EM structure; single-particle reconstructions (icosahedral, C5, C12, C6, C3, asymmetric, localized) of purified JBD30 virions and empty particles in phage buffer (10 mM MgSO4, 10 mM NaCl, 50 mM Tris pH 8); native assembly.
Assay [2] deals with distal tail protein (gp49) of bacteriophage JBD30 (bacteriophage JBD30 (Casadabanvirus JBD30)). The assay is described as above.
Assay [3] addresses major capsid protein (gp38) of bacteriophage JBD30 (bacteriophage JBD30 (Casadabanvirus JBD30)). The assay can be described thus: cryo-EM structure; single-particle reconstruction of JBD30 procapsids found in the purified phage sample (icosahedral, C5, localized C12 portal).
Assay [4] shares this target. The assay can be described thus: cryo-EM structure; single-particle reconstructions (icosahedral, C5, C12, C6, C3, asymmetric, localized) of purified JBD30 virions and empty particles in phage buffer (10 mM MgSO4, 10 mM NaCl, 50 mM Tris pH 8); native assembly.
The target in assay [5] is receptor binding protein (gp54) of bacteriophage JBD30 (bacteriophage JBD30 (Casadabanvirus JBD30)). The assay is described as above.
Assay [6] addresses stopper protein (gp42) of bacteriophage JBD30 (bacteriophage JBD30 (Casadabanvirus JBD30)). The assay is described as above.
Assay [7] has as its target minor capsid protein (gp39) of bacteriophage JBD30 (bacteriophage JBD30 (Casadabanvirus JBD30)). Described as above.
Assay [8] concerns the target adaptor protein (gp41) of bacteriophage JBD30 (bacteriophage JBD30 (Casadabanvirus JBD30)). The assay is described as above.
Assay [9] concerns the target portal protein (gp32) of bacteriophage JBD30 (bacteriophage JBD30 (Casadabanvirus JBD30)). The assay can be described thus: cryo-EM structure; single-particle reconstruction of JBD30 procapsids found in the purified phage sample (icosahedral, C5, localized C12 portal).
The target is the same in assay [10]. The assay can be described thus: cryo-EM structure; single-particle reconstructions (icosahedral, C5, C12, C6, C3, asymmetric, localized) of purified JBD30 virions and empty particles in phage buffer (10 mM MgSO4, 10 mM NaCl, 50 mM Tris pH 8); native assembly.
Assay [11] addresses tape measure protein (gp46) of bacteriophage JBD30 (bacteriophage JBD30 (Casadabanvirus JBD30)). Described as above.
Assay [12] addresses major tail protein (gp44) of bacteriophage JBD30 (bacteriophage JBD30 (Casadabanvirus JBD30)). The description is as above.

“And” between values parts separate entries of the source, which are not always exact repeats. Equal entries are not always repeated.

The term stoichiometry N denotes the number of molecules, sites or subunits per partner or assembly.

Substance “baseplate hub protein (gp53) of bacteriophage JBD30 (natural protein)” yielded a stoichiometry N in assay [1] of 3.

In turn, “distal tail protein (gp49) of bacteriophage JBD30 (natural protein)” yielded a stoichiometry N in [2] of 3. For the substance “major capsid protein (gp38) of bacteriophage JBD30 (natural protein)”, the stoichiometry N is 5 and 6 in [3]; 5 and 6 in assay [4]. In assay [5], “receptor binding protein (gp54) of bacteriophage JBD30 (natural protein)” displayed a stoichiometry N of 3.

In the case of “stopper protein (gp42) of bacteriophage JBD30 (natural protein)”, the stoichiometry N in assay [6] is 6.

“minor capsid protein (gp39) of bacteriophage JBD30 (natural protein)”: the stoichiometry N in [7] is 3. Take “adaptor protein (gp41) of bacteriophage JBD30 (natural protein)”: in [8], the stoichiometry N is 12. As to “portal protein (gp32) of bacteriophage JBD30 (natural protein)”, the stoichiometry N in assay [9] and in [10] was 12 each time.

Substance “tape measure protein (gp46) of bacteriophage JBD30 (natural protein)” showed a stoichiometry N in assay [11] of 3. For the substance “major tail protein (gp44) of bacteriophage JBD30 (natural protein)”, the stoichiometry N in [12] was 6.
